Columns and labels:
[1] = target: T1, human EGFR ECD (Extracellular Domain) (human, UniProt P00533 25-645); assay: SPR (Biacore T100)
T1 construct: extracellular domain; also called EGFR (HER1); HER1
Excerpt: (§1) Briefly, for affinity measurements Goat-Anti-Human IgG, JIR 109-005-098 antibodies were immobilized on a CM5 chip via amine coupling for presentation of the antibodies against human ECD-Fc tagged. […] Biacore T100 Evaluation Software version 1.1.1 was used for analysis of sensorgrams and for calculation of affinity data.
(§2) Binding of the generated antibodies to human ANGPT2 and VEGF was also investigated by surface plasmon resonance using a BIACORE T100 instrument (GE Healthcare Biosciences AB, Uppsala, Sweden). Briefly, for affinity measurements goat<hIgG-Fcg> polyclonal antibodies were immobilized on a CM5 or CM4 chip via amine coupling for presentation of the antibodies against human ANGPT2 and VEGF. […] Biacore T100 Evaluation Software version 1.1.1 was used for analysis of sensorgrams and for calculation of affinity data.

[2] = target: T2, human VEGF165/VEGF121-His (human, UniProt P15692-4 27-191, limits assumed); assay: SPR (Biacore T100)
T2 construct: R&D Systems or in house purified; also called VEGF-A; hVEGF
T2 sequence (P15692 other isoform, or with tags, fused parts or gaps limits assumed): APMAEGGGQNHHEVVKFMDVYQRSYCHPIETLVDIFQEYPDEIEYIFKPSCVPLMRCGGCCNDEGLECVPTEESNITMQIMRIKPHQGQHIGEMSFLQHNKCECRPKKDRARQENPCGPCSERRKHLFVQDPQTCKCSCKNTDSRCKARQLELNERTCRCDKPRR
Excerpt: as §1, §2

Kd [1]: 6 nM
koff [1]: 0.00023 s⁻¹
kon [1]: 47000 M⁻¹ s⁻¹
Kd [2]: < 0.1 nM
koff [2]: < 1e-06 s⁻¹
kon [2]: 100000 M⁻¹ s⁻¹
B1: trispecific and tetravalent antibody recognizing Angiopoietin-2, VEGF-A, and EGFR according to FIG. 5a (antibody, human IgG1, kappa)
light 1: QPGLTQPPSVSVAPGQTARITCGGNNIGSKSVHWYQQKPGQAPVLVVYDDSDRPSGIPERFSGSNSGNTATLTISRVEAGDEADYYCQVWDSSSDHYVFGTGTKVTVLRTVAAPSVFIFPPSDEQLKSGTASVVCLLNNFYPREAKVQWKVDNALQSGNSQESVTEQDSKDSTYSLSSTLTLSKADYEKHKVYACEVTHQGLSSPVTKSFNRGEC
heavy 1: not shown
light 2: DIQMTQSPSSLSASVGDRVTITCSASQDISNYLNWYQQKPGKAPKVLIYFTSSLHSGVPSRFSGSGSGTDFTLTISSLQPEDFATYYCQQYSTVPWTFGQGTKVEIKSSASTKGPSVFPLAPSSKSTSGGTAALGCLVKDYFPEPVTVSWNSGALTSGVHTFPAVLQSSGLYSLSSVVTVPSSSLGTQTYICNVNHKPSNTKVDKKVEPKSC
heavy 2: not shown
notes: Trispecific, tetravalent: four different chains, each once; CH1/CL (Ckappa) domain exchanged knobs-into-holes antibody; scFvs fused via a (G4S)4 connector; Expressed in HEK293F cells; also called trispecific antibody with disulfide stabilized scFv against EGFR on both heavy chains
